The text below walks through data of patent publication US20100068208A1, “Degranulation inhibitor” (priority 2005, published 2010).

The target of one assay is T1, human TGR12 (untagged) (human, UniProt Q96LB1 1-330).
T1 sequence: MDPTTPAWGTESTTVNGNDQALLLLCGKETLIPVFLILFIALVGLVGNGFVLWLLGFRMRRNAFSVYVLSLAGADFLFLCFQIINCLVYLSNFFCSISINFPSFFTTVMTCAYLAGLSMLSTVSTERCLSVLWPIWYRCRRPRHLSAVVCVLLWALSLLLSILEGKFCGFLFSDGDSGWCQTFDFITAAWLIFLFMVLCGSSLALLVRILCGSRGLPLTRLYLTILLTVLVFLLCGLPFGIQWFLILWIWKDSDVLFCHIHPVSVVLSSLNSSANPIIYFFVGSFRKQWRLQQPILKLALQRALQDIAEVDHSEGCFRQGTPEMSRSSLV
Description: cell-based or functional assay.

Assay [1] addresses TGR12-GFP (fused protein of human TGR12 and GFP, encoded by the DNA of SEQ ID NO: 31), stably expressed on CHO cells (CHO-TGR12 of Example 1) (human) (UniProt Q96LB1). Description: cell-based or functional assay.

In the assay with human TGR12 (untagged), “human PAMP12 (proadrenomedullin N-terminal 20 peptide (9-20)) (from UniProt P35318 30-41)” came in with an EC50 in the degranulation on LAD 2 of 13 nM; a degranulation of LAD 2 (beta-hexosaminidase release, % of total) at 3 nM of 6.3%; a degranulation of LAD 2 (beta-hexosaminidase release, % of total) at 10 nM of 30.7%; a degranulation of LAD 2 (beta-hexosaminidase release, % of total) at 30 nM of 52.1%. In the assay with human TGR12 (untagged), the degranulation of LAD 2 (beta-hexosaminidase release, % of total) at 100 nM was determined as 65.2%; the degranulation of LAD 2 (beta-hexosaminidase release, % of total) at 300 nM was determined as 67.7%; the degranulation of LAD 2 (beta-hexosaminidase release, % of total) at 1 µM is 69.3%; the maximum activity in the calcium increasing effect (FLIPR), RBL2H3-TGR12, at 1 nM (fluorescence intensity) stood at 41. Moreover, in the assay with human TGR12 (untagged), the maximum activity in the calcium increasing effect (FLIPR), RBL2H3-TGR12, at 10 nM (fluorescence intensity) came out at 2090; the maximum activity in the calcium increasing effect (FLIPR), RBL2H3-TGR12, at 100 nM (fluorescence intensity) came out at 11100; the maximum activity in the calcium increasing effect (FLIPR), RBL2H3-TGR12, at 1 µM (fluorescence intensity) was 12000; the maximum activity in the calcium increasing effect (FLIPR), RBL2H3-TGR12, at 10 µM (fluorescence intensity) was 12300. Moreover, in assay [1], the EC50 in the calcium increasing effect on CHO-TGR12 amounted to 98 nM; the maximum activity in the calcium increasing effect (FLIPR), CHO-TGR12, at 0.3 nM (fluorescence intensity) stood at 255; the maximum activity in the calcium increasing effect (FLIPR), CHO-TGR12, at 3 nM (fluorescence intensity) amounted to 1620; the maximum activity in the calcium increasing effect (FLIPR), CHO-TGR12, at 30 nM (fluorescence intensity) stood at 22300. Moreover, in assay [1], the maximum activity in the calcium increasing effect (FLIPR), CHO-TGR12, at 300 nM (fluorescence intensity) stood at 24100 and the maximum activity in the calcium increasing effect (FLIPR), CHO-TGR12, at 3000 nM (fluorescence intensity) was 23700.
